Source: publication PMC4240464

Legend:
[1] = target: Fc–Evasin-4 (Rhipicephalus sanguineus); assay: SPR
[2] = target: Evasin-4–Fc (Rhipicephalus sanguineus); assay: SPR

B1: CCL23 (ligand)
chain: RVTKDAETEFMMSKLPLENPVLLDRFHATSADCCISYTPRSIPCSLLESYFETNSECSKPGVIFLTKKGRRFCANPSDKQVQVCMRMLKLDTRIKTRKN
**Q.** Which Kd [1] does the source give for B1 here?
**A.** 0.124 nM

**Q.** And the Kd [2]?
**A.** 0.232 nM

B2: CCL18 (ligand)
chain: AQVGTNKELCCLVYTSWQIPQKFIVDYSETSPQCPKPGVILLTKRGRQICADPNKKWVQKYISDLKLNA
**Q.** How did the Kd [1] turn out when B2 was run?
**A.** 0.083 nM

**Q.** What about the Kd [2] of the same binder?
**A.** 3.63 nM

B3: CCL1 (ligand)
chain: KSMQVPFSRCCFSFAEQEIPLRAILCYRNTSSICSNEGLIFKLKRGKEACALDTVGWVQRHRKMLRHCPSKRK
**Q.** Which results are given for B3?
**A.** Kd [1]: 0.276 nM; Kd [2]: 0.097 nM

B4: CCL24 (ligand)
chain: VVIPSPCCMFFVSKRIPENRVVSYQLSSRSTCLKAGVIFTTKKGQQFCGDPKQEWVQRYMKNLDAKQKKASPRARAVAVKGPVQRYPGNQTTC
**Q.** Which results are given for B4?
**A.** Kd [1]: 4.84 nM; Kd [2]: 708 nM

B5: CCL15 (ligand)
chain: QFTNDAETELMMSKLPLENPVVLNSFHFAADCCTSYISQSIPCSLMKSYFETSSECSKPGVIFLTKKGRQVCAKPSGPGVQDCMKKLKPYSI
**Q.** Which Kd [1] does the source give for B5 here?
**A.** 0.04 nM

**Q.** What about the Kd [2] of the same binder?
**A.** 0.016 nM
